{
  "source": "paper PMC3058729",
  "target": "GST fusion protein of the cytoplasmic region of DSC2a A897fsX900 (aa 716–899) (human) (UniProt Q02487)",
  "sequence (Q02487 716-899)": "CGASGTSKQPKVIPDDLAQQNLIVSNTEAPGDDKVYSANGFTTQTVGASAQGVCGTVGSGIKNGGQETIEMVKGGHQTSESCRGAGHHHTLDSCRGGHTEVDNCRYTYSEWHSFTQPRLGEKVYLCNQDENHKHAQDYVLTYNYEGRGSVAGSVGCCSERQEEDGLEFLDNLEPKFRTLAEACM",
  "test": "pull-down",
  "data": [
    {"binder": "plakoglobin (PG), endogenous in adult rat heart lysate (natural protein) MEVMNLIEQPIKVTEWQQTYTYDSGIHSGVNTCVPSVSSKGLLDEDDTCGRQYTLKKTTTYTQGVPQSQGDLEYQMSTTARAKRVREAMCPGVSGEDSSLLLATQVEGQTTNLQRLAEPSQLLKSAIVHLINYQDDAELATRALPELTKLLNDEDPVVVTKAAMIVNQLSKKEASRRALMGSPQLVAAVVRTMQNTSDLDTARCTTSILHNLSHHREGLLAIFKSGGIPALVRMLSSPVESVLFYAITTLHNLLLYQEGAKMAVRLADGLQKMVPLLNKNNPKFLAITTDCLQLLAYGNQESKLIILANGGPQGLVQIMRNYSYEKLLWTTSRVLKVLSVCPSNKPAIVEAGGMQALGKHLTSNSPRLVQNCLWTLRNLSDVATKQEGLENVLKILVNQLSVDDVNVLTCATGTLSNLTCNNSKNKTLVTQNSGVEALIHAILRAGDKDDITEPAVCALRHLTSRHPEAEMAQNSVRLNYGIPAIVKLLNQPNQWPLVKATIGLIRNLALCPANHAPLQEAAVIPRLVQLLVKAHQDAQRHVAAGTQQPYTDGVRMEEIVEGCTGALHILARDPMNRMEIFRLNTIPLFVQLLYSSVENIQRVAAGVLCELAQDKEAADAIDAEGASAPLMELLHSRNEGTATYAAAVLFRISEDKNPDYRKRVSVELTNSLFKHDPAAWEAAQSMIPINEPYADDMDATYRPMYSSDVPLDPLDMHMDMDGDYPMDTYSDGLRPPYPAADHMLA", "values": [
      {"measurement": "reduction of binding against DSC2a WT (densitometry)", "value": 50, "unit": "%"}
    ]}
  ]
}
